Laboratory results published in paper PMC10397247.

Key:
4H953-bA = target: T1, 4H953-bA; assay: two-hybrid library CCNG1;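 note: natural log of median RNA to DNA barcode read ratio; higher means stronger binding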
T1 chain: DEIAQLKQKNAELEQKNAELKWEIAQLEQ

4H883-bA = target: T2, 4H883-bA; assay: two-hybrid library CCNG1;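 note: natural log of median RNA to DNA barcode read ratio; higher means stronger binding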
T2 chain: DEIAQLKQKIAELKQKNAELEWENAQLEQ

4H4001-bA = target: T3, 4H4001-bA; assay: two-hybrid library CCNG1;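 note: natural log of median RNA to DNA barcode read ratio; higher means stronger binding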
T3 chain: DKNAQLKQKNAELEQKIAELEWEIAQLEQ

4H687-bA = target: T4, 4H687-bA; assay: two-hybrid library CCNG1;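 note: natural log of median RNA to DNA barcode read ratio; higher means stronger binding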
T4 chain: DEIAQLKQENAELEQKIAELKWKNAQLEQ

4H918-bA = target: T5, 4H918-bA; assay: two-hybrid library CCNG1;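 note: natural log of median RNA to DNA barcode read ratio; higher means stronger binding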
T5 chain: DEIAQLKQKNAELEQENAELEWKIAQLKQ

4H568-bA = target: T6, 4H568-bA; assay: two-hybrid library CCNG1;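 note: natural log of median RNA to DNA barcode read ratio; higher means stronger binding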
T6 chain: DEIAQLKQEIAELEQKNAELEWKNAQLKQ

4H3843-bA = target: T7, 4H3843-bA; assay: two-hybrid library CCNG1
T7 chain: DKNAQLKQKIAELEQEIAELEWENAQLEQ

4H462-bA = target: T8, 4H462-bA; assay: two-hybrid library CCNG1
T8 chain: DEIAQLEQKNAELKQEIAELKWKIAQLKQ

4H797-bA = target: T9, 4H797-bA; assay: two-hybrid library CCNG1
T9 chain: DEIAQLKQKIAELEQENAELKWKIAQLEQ

4H72-bA = target: T10, 4H72-bA; assay: two-hybrid library CCNG1
T10 chain: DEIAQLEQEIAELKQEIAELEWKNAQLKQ

4H607-bA = target: T11, 4H607-bA; assay: two-hybrid library CCNG1
T11 chain: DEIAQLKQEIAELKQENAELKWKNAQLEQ

4H967-bA = target: T12, 4H967-bA; assay: two-hybrid library CCNG1
T12 chain: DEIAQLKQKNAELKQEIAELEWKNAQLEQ

4H497-AA = target: T13, 4H497-AA; assay: two-hybrid library CCmax; details: mean of both orientations
T13 chain: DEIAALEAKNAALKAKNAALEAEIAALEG

4H3121-AA = target: T14, 4H3121-AA; assay: two-hybrid library CCmax; details: mean of both orientations
T14 chain: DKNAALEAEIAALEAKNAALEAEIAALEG

4H675-AA = target: T15, 4H675-AA; assay: two-hybrid library CCmax; details: mean of both orientations
T15 chain: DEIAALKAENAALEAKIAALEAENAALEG

4H656-AA = target: T16, 4H656-AA; assay: two-hybrid library CCmax; details: mean of both orientations
T16 chain: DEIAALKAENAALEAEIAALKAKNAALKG

4H3591-AA = target: T17, 4H3591-AA; assay: two-hybrid library CCmax; details: mean of both orientations
T17 chain: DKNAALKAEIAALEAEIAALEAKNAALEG

4H3920-AA = target: T18, 4H3920-AA; assay: two-hybrid library CCmax; details: mean of both orientations
T18 chain: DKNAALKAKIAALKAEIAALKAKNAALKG

4H3939-AA = target: T19, 4H3939-AA; assay: two-hybrid library CCmax; details: mean of both orientations
T19 chain: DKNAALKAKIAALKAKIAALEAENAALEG

4H3709-AA = target: T20, 4H3709-AA; assay: two-hybrid library CCmax; details: mean of both orientations
T20 chain: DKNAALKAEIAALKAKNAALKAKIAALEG

4H3446-AA = target: T21, 4H3446-AA; assay: two-hybrid library CCmax; details: mean of both orientations
T21 chain: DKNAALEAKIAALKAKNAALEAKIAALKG

4H3102-AA = target: T22, 4H3102-AA; assay: two-hybrid library CCmax; details: mean of both orientations
T22 chain: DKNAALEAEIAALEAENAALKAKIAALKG

4H428-AA = target: T23, 4H428-AA; assay: two-hybrid library CCmax; details: mean of both orientations
T23 chain: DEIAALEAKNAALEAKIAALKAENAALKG

4H2948-AA = target: T24, 4H2948-AA; assay: two-hybrid library CCmax
T24 chain: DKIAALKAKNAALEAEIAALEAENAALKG

4H2991-AA = target: T25, 4H2991-AA; assay: two-hybrid library CCmax; details: mean of both orientations
T25 chain: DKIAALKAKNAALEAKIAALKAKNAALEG

4H3666-AA = target: T26, 4H3666-AA; assay: two-hybrid library CCmax; details: mean of both orientations
T26 chain: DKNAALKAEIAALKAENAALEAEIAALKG

4H478-AA = target: T27, 4H478-AA; assay: two-hybrid library CCmax; details: mean of both orientations
T27 chain: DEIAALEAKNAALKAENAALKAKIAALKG

4H971-AA = target: T28, 4H971-AA; assay: two-hybrid library CCmax; details: mean of both orientations
T28 chain: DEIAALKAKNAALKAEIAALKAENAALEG

4H3628-AA = target: T29, 4H3628-AA; assay: two-hybrid library CCmax; details: mean of both orientations
T29 chain: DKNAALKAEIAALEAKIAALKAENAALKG

4H3066-AA = target: T30, 4H3066-AA; assay: two-hybrid library CCmax; details: mean of both orientations
T30 chain: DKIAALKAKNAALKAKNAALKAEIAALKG

4H3029-AA = target: T31, 4H3029-AA; assay: two-hybrid library CCmax; details: mean of both orientations
T31 chain: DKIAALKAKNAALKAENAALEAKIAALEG

4H3417-AA = target: T32, 4H3417-AA; assay: two-hybrid library CCmax; details: mean of both orientations
T32 chain: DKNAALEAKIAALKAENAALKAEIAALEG

4H391-AA = target: T33, 4H391-AA; assay: two-hybrid library CCmax
T33 chain: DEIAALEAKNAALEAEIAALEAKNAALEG

4H376-AA = target: T34, 4H376-AA; assay: two-hybrid library CCmax
T34 chain: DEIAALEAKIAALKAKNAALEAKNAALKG

4H688-AA = target: T35, 4H688-AA; assay: two-hybrid library CCmax; details: mean of both orientations
T35 chain: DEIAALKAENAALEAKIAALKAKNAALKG

4H963-AA = target: T36, 4H963-AA; assay: two-hybrid library CCmax; details: mean of both orientations
T36 chain: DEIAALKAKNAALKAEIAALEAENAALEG

4H406-AA = target: T37, 4H406-AA; assay: two-hybrid library CCmax; details: mean of both orientations
T37 chain: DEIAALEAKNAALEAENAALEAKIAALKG

4H908-bA = target: T38, 4H908-bA; assay: two-hybrid library CCNG1
T38 chain: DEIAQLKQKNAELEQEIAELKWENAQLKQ

4H462-bN = target: T39, 4H462-bN; assay: two-hybrid library CCNG1
T39 chain: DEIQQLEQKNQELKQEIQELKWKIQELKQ

4H3782-bA = target: T40, 4H3782-bA; assay: two-hybrid library CCNG1
T40 chain: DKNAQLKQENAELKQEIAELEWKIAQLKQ

4H717-bA = target: T41, 4H717-bA; assay: two-hybrid library CCNG1
T41 chain: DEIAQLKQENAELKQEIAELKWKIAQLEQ

4H3855-bH = target: T42, 4H3855-bH; assay: two-hybrid library CCNG1
T42 chain: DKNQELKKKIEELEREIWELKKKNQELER

4H3855-bA = target: T43, 4H3855-bA; assay: two-hybrid library CCNG1
T43 chain: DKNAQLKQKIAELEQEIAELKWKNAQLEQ

4H454-bA = target: T44, 4H454-bA; assay: two-hybrid library CCNG1
T44 chain: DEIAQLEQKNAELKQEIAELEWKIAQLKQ

4H687-bN = target: T45, 4H687-bN; assay: two-hybrid library CCNG1
T45 chain: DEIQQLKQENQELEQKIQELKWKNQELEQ

4H754-bA = target: T46, 4H754-bA; assay: two-hybrid library CCNG1
T46 chain: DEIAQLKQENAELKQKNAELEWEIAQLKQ

4H850-bA = target: T47, 4H850-bA; assay: two-hybrid library CCNG1
T47 chain: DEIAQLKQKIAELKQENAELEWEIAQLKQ

4H883-bN = target: T48, 4H883-bN; assay: two-hybrid library CCNG1
T48 chain: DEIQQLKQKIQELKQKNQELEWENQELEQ

4H3638-bA = target: T49, 4H3638-bA; assay: two-hybrid library CCNG1
T49 chain: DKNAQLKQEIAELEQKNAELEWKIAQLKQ

4H906-bA = target: T50, 4H906-bA; assay: two-hybrid library CCNG1
T50 chain: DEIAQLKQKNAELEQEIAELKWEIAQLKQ

4H570-bA = target: T51, 4H570-bA; assay: two-hybrid library CCNG1
T51 chain: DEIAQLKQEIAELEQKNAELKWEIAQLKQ

4H3817-bA = target: T52, 4H3817-bA; assay: two-hybrid library CCNG1
T52 chain: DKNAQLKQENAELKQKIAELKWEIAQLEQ

4H584-bA = target: T53, 4H584-bA; assay: two-hybrid library CCNG1
T53 chain: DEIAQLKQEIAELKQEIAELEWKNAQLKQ

4H918-bH = target: T54, 4H918-bH; assay: two-hybrid library CCNG1
T54 chain: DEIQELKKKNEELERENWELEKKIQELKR

4H619-bA = target: T55, 4H619-bA; assay: two-hybrid library CCNG1
T55 chain: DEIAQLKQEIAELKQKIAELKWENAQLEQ

4H3974-bA = target: T56, 4H3974-bA; assay: two-hybrid library CCNG1
T56 chain: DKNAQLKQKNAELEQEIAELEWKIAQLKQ

4H918-AA = target: T57, 4H918-AA; assay: two-hybrid library CCmax; details: mean of both orientations
T57 chain: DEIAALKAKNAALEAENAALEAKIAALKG

4H883-AA = target: T58, 4H883-AA; assay: two-hybrid library CCmax
T58 chain: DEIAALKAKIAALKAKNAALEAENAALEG

4H967-AA = target: T59, 4H967-AA; assay: two-hybrid library CCmax; details: mean of both orientations
T59 chain: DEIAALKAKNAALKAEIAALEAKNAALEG

4H953-AA = target: T60, 4H953-AA; assay: two-hybrid library CCmax; details: mean of both orientations
T60 chain: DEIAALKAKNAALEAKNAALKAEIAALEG

B1: 4H3843-bA (peptide)
chain: DKNAQLKQKIAELEQEIAELEWENAQLEQ
4H953-bA
  interaction score: -1.38
4H883-bA
  interaction score: -1.14
4H4001-bA
  interaction score: -0.268
4H687-bA
  interaction score: -0.85
4H918-bA
  interaction score: -1.1
4H568-bA
  interaction score: -1.79
4H3843-bA
  interaction score: -0.878
4H462-bA
  interaction score: -0.841
4H797-bA
  interaction score: -0.879
4H72-bA
  interaction score: 0.286
4H607-bA
  interaction score: -0.651
4H967-bA
  interaction score: -1.25

B2: 4H2948-AA (peptide)
chain: DKIAALKAKNAALEAEIAALEAENAALKG
4H497-AA
  interaction score: -1.54
4H3121-AA
  interaction score: -1.15
4H675-AA
  interaction score: -0.414
4H656-AA
  interaction score: 0.924
4H3591-AA
  interaction score: -1.3
4H3920-AA
  interaction score: -1.35
4H3939-AA
  interaction score: -1.77
4H3709-AA
  interaction score: -1.17
4H3446-AA
  interaction score: -0.524
4H3102-AA
  interaction score: 0.56
4H428-AA
  interaction score: 1.95
4H2948-AA
  interaction score: -0.0114
4H2991-AA
  interaction score: -0.169
4H3666-AA
  interaction score: -1.69
4H478-AA
  interaction score: -1.62
4H971-AA
  interaction score: -0.608
4H3628-AA
  interaction score: -0.855
4H3066-AA
  interaction score: -1.57
4H3029-AA
  interaction score: -1.4
4H3417-AA
  interaction score: 0.478
4H391-AA
  interaction score: -1.39

B3: 4H376-AA (peptide)
chain: DEIAALEAKIAALKAKNAALEAKNAALKG
4H376-AA
  interaction score: -1.28
4H688-AA
  interaction score: -1.96
4H963-AA
  interaction score: -1.33
4H406-AA
  interaction score: -0.774

B4: 4H3782-bA (peptide)
chain: DKNAQLKQENAELKQEIAELEWKIAQLKQ
4H908-bA
  interaction score: -1.42
4H953-bA
  interaction score: -1.07
4H462-bN
  interaction score: 1.22
4H3782-bA
  interaction score: 1.29
4H883-bA
  interaction score: 0.21
4H4001-bA
  interaction score: 0.27
4H687-bA
  interaction score: 0.572
4H918-bA
  interaction score: -1.34
4H568-bA
  interaction score: -1.41
4H3843-bA
  interaction score: 1.18
4H717-bA
  interaction score: -0.182
4H462-bA
  interaction score: 0.962
4H3855-bH
  interaction score: 0.603
4H797-bA
  interaction score: 0.173
4H72-bA
  interaction score: -0.987
4H3855-bA
  interaction score: 0.312
4H454-bA
  interaction score: 1.64
4H687-bN
  interaction score: 0.761
4H754-bA
  interaction score: -0.898
4H607-bA
  interaction score: -0.58
4H967-bA
  interaction score: 0.0169

B5: 4H3638-bA (peptide)
chain: DKNAQLKQEIAELEQKNAELEWKIAQLKQ
4H850-bA
  interaction score: 0.728
4H883-bN
  interaction score: -2.2
4H3638-bA
  interaction score: 0.115
4H906-bA
  interaction score: -1.97
4H570-bA
  interaction score: -0.717
4H3817-bA
  interaction score: -0.0786
4H584-bA
  interaction score: -1.67
4H918-bH
  interaction score: 0.343
4H619-bA
  interaction score: -0.0681
4H3974-bA
  interaction score: 0.0825

B6: 4H883-AA (peptide)
chain: DEIAALKAKIAALKAKNAALEAENAALEG
4H918-AA
  interaction score: -1.46
4H883-AA
  interaction score: -1.73
4H967-AA
  interaction score: -2.15
4H953-AA
  interaction score: -2.05
